Laboratory results: the supplement of paper PMC10065799, “High-throughput profiling of sequence recognition by tyrosine kinases and SH2 domains using bacterial peptide display” (eLife, 2023)

Tests used:
[1] = system: AncSZ; assay: phosphorylation enrichment, bacterial display (enrichment ratio); higher = better substrate or ligand; peptides without Tyr show the background
[2] = target: EPHB1 (UniProt P54762); assay: as above
[3] = target: EPHB2 (UniProt P29323); assay: as above
[4] = target: FGFR1 (UniProt P11362); assay: as above
Sequence of FGFR1 (P11362 whole entry, looked up): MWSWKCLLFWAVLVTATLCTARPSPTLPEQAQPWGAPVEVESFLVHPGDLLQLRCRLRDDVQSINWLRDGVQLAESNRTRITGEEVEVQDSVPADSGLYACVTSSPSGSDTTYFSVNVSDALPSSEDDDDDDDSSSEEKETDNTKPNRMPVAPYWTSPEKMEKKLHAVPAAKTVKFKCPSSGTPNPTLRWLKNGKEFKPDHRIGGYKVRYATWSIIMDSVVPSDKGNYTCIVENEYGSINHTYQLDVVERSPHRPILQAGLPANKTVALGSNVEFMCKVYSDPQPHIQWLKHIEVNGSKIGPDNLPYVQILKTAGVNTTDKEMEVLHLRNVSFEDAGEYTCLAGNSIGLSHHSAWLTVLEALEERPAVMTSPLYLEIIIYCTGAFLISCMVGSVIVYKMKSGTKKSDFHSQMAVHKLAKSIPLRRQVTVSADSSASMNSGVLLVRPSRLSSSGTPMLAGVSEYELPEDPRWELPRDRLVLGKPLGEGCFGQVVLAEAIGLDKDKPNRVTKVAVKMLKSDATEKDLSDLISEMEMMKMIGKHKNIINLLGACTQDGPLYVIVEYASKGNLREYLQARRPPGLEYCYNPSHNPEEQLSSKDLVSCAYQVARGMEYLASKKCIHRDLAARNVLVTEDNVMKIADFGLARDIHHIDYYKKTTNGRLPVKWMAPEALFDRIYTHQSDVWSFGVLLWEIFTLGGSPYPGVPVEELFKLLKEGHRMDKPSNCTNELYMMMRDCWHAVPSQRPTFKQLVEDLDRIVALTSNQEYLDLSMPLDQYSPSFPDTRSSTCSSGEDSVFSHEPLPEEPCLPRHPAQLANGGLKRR

[5] = target: FGFR3 (UniProt P22607); assay: as above
[6] = system: Fer (mouse); assay: as above
[7] = target: Fes (UniProt P07332); assay: as above
Sequence of Fes (P07332 whole entry, looked up): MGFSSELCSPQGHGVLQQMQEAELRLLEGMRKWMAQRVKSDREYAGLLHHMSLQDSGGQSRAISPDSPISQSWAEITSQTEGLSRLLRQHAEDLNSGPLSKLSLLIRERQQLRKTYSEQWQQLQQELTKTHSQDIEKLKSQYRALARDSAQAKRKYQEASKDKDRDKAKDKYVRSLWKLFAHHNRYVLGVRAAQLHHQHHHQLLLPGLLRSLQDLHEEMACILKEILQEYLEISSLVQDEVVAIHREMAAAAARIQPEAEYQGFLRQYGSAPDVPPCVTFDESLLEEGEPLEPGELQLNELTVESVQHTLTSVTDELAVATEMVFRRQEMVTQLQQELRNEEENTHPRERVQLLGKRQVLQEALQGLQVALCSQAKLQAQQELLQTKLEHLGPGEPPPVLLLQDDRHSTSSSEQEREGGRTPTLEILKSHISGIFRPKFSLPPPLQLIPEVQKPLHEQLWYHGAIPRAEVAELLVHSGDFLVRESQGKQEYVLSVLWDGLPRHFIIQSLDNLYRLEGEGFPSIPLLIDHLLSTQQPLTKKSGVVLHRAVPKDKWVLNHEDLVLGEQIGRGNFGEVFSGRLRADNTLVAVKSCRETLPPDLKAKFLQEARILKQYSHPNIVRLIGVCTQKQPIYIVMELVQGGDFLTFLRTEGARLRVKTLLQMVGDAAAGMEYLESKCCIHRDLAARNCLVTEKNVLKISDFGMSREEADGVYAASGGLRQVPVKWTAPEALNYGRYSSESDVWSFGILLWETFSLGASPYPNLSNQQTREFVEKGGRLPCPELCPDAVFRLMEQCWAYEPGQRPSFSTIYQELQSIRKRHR

[8] = target: Fyn (UniProt P06241); assay: as above
[9] = target: Hck (UniProt P08631); assay: as above
[10] = target: Jak2 (UniProt O60674); assay: as above
Sequence of Jak2 (O60674 whole entry, looked up): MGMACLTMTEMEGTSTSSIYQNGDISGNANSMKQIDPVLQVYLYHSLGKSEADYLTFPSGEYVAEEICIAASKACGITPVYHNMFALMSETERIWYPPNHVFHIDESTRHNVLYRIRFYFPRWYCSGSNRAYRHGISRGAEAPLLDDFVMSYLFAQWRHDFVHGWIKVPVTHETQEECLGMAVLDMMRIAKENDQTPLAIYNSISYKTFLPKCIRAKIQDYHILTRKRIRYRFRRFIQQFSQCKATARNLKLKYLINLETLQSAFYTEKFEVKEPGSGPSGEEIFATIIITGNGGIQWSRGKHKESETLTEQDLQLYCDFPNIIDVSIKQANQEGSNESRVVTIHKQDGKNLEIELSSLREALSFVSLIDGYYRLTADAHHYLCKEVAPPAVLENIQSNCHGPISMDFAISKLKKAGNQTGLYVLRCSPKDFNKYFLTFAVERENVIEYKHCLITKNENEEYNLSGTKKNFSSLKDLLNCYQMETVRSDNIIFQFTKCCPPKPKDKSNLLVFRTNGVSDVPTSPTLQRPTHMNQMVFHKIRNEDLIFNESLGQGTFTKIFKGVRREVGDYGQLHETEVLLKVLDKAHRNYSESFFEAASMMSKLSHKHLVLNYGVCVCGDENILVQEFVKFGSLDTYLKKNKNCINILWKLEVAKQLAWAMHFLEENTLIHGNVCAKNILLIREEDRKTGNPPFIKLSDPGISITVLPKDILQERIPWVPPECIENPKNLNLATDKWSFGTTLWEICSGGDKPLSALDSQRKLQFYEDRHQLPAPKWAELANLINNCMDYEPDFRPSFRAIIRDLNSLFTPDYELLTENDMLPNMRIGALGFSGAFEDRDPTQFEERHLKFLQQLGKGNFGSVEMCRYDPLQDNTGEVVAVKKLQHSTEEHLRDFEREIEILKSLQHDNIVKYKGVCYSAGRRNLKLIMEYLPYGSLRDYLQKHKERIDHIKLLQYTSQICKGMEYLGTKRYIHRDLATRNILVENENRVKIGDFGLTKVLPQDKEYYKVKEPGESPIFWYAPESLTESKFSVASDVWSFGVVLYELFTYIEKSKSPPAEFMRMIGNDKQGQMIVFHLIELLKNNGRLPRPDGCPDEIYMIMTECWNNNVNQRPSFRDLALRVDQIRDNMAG

[11] = target: MERTK (UniProt Q12866); assay: as above
Sequence of MERTK (Q12866 whole entry, looked up): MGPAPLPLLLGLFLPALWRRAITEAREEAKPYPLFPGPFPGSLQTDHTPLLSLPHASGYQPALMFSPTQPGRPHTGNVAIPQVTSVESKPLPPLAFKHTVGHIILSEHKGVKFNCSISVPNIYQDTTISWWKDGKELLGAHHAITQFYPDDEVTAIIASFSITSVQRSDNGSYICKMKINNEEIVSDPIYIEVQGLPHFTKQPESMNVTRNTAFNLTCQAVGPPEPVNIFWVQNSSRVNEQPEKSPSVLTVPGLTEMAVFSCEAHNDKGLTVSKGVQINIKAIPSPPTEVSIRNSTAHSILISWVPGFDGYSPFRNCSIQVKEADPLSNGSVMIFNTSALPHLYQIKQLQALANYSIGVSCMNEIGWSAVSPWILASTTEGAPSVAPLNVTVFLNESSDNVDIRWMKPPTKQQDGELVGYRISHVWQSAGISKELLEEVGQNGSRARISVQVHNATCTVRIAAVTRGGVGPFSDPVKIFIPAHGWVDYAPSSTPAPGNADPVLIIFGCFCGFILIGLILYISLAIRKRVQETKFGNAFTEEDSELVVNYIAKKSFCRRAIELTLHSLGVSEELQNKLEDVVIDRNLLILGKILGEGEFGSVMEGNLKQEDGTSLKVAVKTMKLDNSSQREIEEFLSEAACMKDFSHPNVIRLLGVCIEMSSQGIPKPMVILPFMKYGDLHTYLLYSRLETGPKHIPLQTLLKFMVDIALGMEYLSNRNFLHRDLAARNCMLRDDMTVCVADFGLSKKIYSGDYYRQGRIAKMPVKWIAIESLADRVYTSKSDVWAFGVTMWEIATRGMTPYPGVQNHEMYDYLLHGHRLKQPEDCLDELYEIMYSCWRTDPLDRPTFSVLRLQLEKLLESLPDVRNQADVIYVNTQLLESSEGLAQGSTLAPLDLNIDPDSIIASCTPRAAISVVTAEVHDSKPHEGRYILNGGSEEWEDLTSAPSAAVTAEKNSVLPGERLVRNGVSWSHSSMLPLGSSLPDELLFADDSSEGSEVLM

[12] = system: c-Abl (mouse); assay: as above
[13] = system: c-Src; assay: as above
[14] = target: Grb2 SH2 (UniProt P62993); assay: SH2 binding enrichment of the phosphorylated peptide, bacterial display (enrichment ratio); higher = better substrate or ligand; peptides without Tyr show the background
[15] = target: SHP2-C SH2; assay: as above
[16] = target: c-Src SH2; assay: as above
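For SH2 binding enrichment of the phosphorylated peptide, bacterial display in this document: peptide library displayed on the E. coli surface as eCPX fusions, selected cells deep-sequenced, score is each peptide's frequency after selection divided by its frequency in the input.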
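For phosphorylation enrichment, bacterial display in this document: 11-residue human phosphosite peptides and single-mutation variants displayed on the E. coli surface, counted by deep sequencing, each peptide's frequency after selection divided by its frequency in the unselected input library; frequency after pTyr selection over input frequency; kinase dosed for 20-30% of maximal phosphorylation in three min.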

Sequence of EPHB1 (P54762 whole entry, looked up): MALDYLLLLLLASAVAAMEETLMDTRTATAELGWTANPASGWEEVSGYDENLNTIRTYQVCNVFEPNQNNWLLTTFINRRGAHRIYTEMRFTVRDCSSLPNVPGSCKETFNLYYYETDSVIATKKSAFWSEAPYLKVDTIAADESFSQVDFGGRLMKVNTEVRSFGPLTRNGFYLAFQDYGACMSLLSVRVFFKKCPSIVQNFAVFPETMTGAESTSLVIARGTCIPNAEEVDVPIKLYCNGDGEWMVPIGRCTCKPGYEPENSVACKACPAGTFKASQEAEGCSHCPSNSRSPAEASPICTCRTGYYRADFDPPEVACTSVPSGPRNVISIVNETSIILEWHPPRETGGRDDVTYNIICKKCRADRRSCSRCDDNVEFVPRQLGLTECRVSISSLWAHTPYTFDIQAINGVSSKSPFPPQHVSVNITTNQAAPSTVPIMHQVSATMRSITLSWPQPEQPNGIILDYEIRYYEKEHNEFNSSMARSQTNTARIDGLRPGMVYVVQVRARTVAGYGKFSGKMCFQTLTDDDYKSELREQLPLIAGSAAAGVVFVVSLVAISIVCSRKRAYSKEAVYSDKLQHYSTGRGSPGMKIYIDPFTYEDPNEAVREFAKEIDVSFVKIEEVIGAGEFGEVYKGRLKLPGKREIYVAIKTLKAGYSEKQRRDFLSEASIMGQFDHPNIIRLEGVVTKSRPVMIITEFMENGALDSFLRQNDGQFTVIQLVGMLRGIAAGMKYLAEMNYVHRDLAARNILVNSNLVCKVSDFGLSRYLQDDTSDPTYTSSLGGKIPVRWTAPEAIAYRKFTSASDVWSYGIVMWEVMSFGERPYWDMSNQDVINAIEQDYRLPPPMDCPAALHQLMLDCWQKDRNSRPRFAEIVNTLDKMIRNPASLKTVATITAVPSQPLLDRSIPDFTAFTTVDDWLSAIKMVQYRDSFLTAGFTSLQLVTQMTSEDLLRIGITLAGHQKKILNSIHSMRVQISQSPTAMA

SH2 binding enrichment [14] | SH2 binding enrichment [15] | SH2 binding enrichment [16] | Sequence | phosphorylation enrichment [1] | phosphorylation enrichment [2] | phosphorylation enrichment [3] | phosphorylation enrichment [4] | phosphorylation enrichment [5] | phosphorylation enrichment [6] | phosphorylation enrichment [7] | phosphorylation enrichment [8] | phosphorylation enrichment [9] | phosphorylation enrichment [10] | phosphorylation enrichment [11] | phosphorylation enrichment [12] | phosphorylation enrichment [13]
0.832 | 0.661 | 0.456 | AGADGYGFLAP [FOXL2_Y186_YF] | 0.846 | 0.391 | 0.508 | 0.652 | 0.694 | 0.611 | 0.737 | 0.517 | 0.71 | 0.857 | 0.618 | 0.698 | 0.797
0.821 | 0.566 | 0.525 | ARRHPYFFAPE [ALB_Y172_Y174F] | 1.09 | 0.546 | 0.635 | 2.85 | 1.86 | 0.559 | 0.746 | 0.58 | 0.402 | 0.726 | 0.588 | 0.538 | 0.721
0.754 | 0.807 | 0.722 | EEHIPYTHMNG [INSR_Y1361] | 0.797 | 0.54 | 0.517 | 0.497 | 0.598 | 0.452 | 0.85 | 0.451 | 0.51 | 0.668 | 0.403 | 0.555 | 0.371
0.953 | 0.836 | 0.521 | LEDEVYAQKMK [TPM2_Y261] | 2.79 | 2.92 | 1.08 | 1.25 | 1.97 | 1.91 | 2.74 | 2.37 | 2.62 | 2.5 | 0.889 | 1.49 | 1.22
0.801 | 0.691 | 0.537 | KALKQYRASPS [DDX27_Y763_G766S] | 0.411 | 0.312 | 0.344 | 0.328 | 0.309 | 0.368 | 0.423 | 0.373 | 0.318 | 0.439 | 0.401 | 0.552 | 0.43
0.918 | 0.687 | 0.598 | DLVSEYQQFQD [TUBB3_Y422_YF] | 1.52 | 0.721 | 0.662 | 0.671 | 1.01 | 0.58 | 1.33 | 0.675 | 0.643 | 1.25 | 0.511 | 0.8 | 0.657
0.908 | 0.878 | 0.573 | IKNSGYISQFL [EIF2AK3_Y585_R588Q_YF] | 0.531 | 0.434 | 0.458 | 0.445 | 0.474 | 0.377 | 0.579 | 0.531 | 0.458 | 0.404 | 0.327 | 0.625 | 0.385
0.672 | 0.564 | 1.24 | FRSSLYSLMET [MYO5C_Y633_L634S] | 1.12 | 4.17 | 1.84 | 0.898 | 0.947 | 9.51 | 1.16 | 4.25 | 4.03 | 0.77 | 12.4 | 0.629 | 4.03
